Assay results reported in US20240084042A1 (Genentech, published 2024).
Numbering of substitutions follows the chain as printed. Names may count otherwise.

T1: human KLK5 (human, UniProt Q9Y337 67-293)
T1 construct: also called huKLK5; KLK5 AMC
T1 sequence: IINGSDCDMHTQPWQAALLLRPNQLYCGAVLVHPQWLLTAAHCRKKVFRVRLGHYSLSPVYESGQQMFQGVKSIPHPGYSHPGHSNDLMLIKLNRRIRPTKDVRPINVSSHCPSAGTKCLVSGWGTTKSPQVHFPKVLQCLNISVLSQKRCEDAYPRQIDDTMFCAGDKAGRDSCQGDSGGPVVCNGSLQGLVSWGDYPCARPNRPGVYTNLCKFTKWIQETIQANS

T2: cynomolgus monkey KLK5 (cynomolgus monkey, UniProt Q9Y337 67-293 (human entry))
T2 construct: also called cyno KLK5
T2 chain: T1 sequence with M9E, R21G, A29G, V71I, R98H, P99S, K128R, K169E, R202K

B1: OA.hu.9H5.H14L4.G54A.G98Q.H89V.S95Y (antibody, V domains shown)
VH: EVQLVESGGGLIQPGGSLRLSCAASGFSLSSYGVSWVRKAPGKGLEYVGFIGSAGFAYYASWAKSRFTISRDNSKNTLYLQMNSLRAEDTAVYYCARDDVQGGKSLDIWGQGTLVTVSS
VL: DIQMTQSPSSLSASVGDRVTITCQASQSISSYLSWYQEKPGKAPKLLIYSASTLASGVPSRFSGSGSGTDFTLTISSLQPEDFATYYCVQDYTSYNVDNTFGGGTKVEIK
notes: One-armed (OA) monovalent anti-KLK5 antibody with a human IgG1 Fc, with Q38E/Q39K; constant regions and dummy Fc chain not specified
B2: OA.hu.9H5.H14L4.G54A.S95Y (antibody, V domains shown)
VH: B1 VH with Q101G
VL: B1 VL with V89H
notes: as for B1
B3: OA.hu.9H5.H14L4.G98Q.H89V.S95Y (antibody, V domains shown)
VH: B1 VH with A54G
VL: B1 VL
notes: as for B1
B4: OA.hu.9H5.H14L4.G98Q.H89V (antibody, V domains shown)
VH: B1 VH with A54G
VL: B1 VL with Y95S
notes: as for B1
B5: OA.hu.9H5.H14L4.G98Q.S95Y (antibody, V domains shown)
VH: B1 VH with A54G
VL: B1 VL with V89H
notes: as for B1
B6: OA.hu.9H5.H14L4.G54A.H89V (antibody, V domains shown)
VH: B1 VH with Q101G
VL: B1 VL with Y95S
notes: as for B1
B7: OA.hu.9H5.H14L4.G54A.G98Q.H89V (antibody, V domains shown)
VH: B1 VH
VL: B1 VL with Y95S
notes: as for B1
B8: OA.hu.9H5.H14L4.G54A.H89V.S95Y (antibody, V domains shown)
VH: B1 VH with Q101G
VL: B1 VL
notes: as for B1
B9: OA.hu.9H5.H14L4.G54A.G98Q.S95Y (antibody, V domains shown)
VH: B1 VH
VL: B1 VL with V89H
notes: as for B1
B10: OA.hu.9H5.H14L4 (antibody, V domains shown)
VH: B1 VH with A54G, Q101G
VL: B1 VL with V89H, Y95S
notes: as for B1
B11: OA.hu.10C5.L5H28.WT (antibody, V domains shown)
VH: EVQLVESGGGLVQPGGSLRLSCAASGFSLSSYGVTWVRQAPGKGLEWIGYITSNYGVSYYASWAKSRSTISRDTSKNTVYLQMGSLRAEDMAVYYCARENPDYGYAYDAWGQGTTVTVSS
VL: AIRMTQSPSSFSASTGDRVTITCQASESISNELSWYQQKPGKAPKLLIYYASTLASGVPSRFSGSGSGTDFTLTISSLQPEDFATYYCAQGFGSSGVENVFGGGTKVEIK
notes: One-armed (OA) monovalent anti-KLK5 antibody with a human IgG1 Fc, without Q38E/Q39K; constant regions and dummy Fc chain not specified
B12: OA.hu.10C5.N53V.F92Y (antibody, V domains shown)
VH: B11 VH with Q39K, N54V
VL: B11 VL with Q38E, F92Y
notes: as for B1
B13: OA.hu.10C5.N53V.S34K.F92Y.S95F (antibody, V domains shown)
VH: B11 VH with Q39K, N54V
VL: B11 VL with S34K, Q38E, F92Y, S95F
notes: as for B1
B14: OA.hu.10C5.N53V (antibody, V domains shown)
VH: B11 VH with N54V
VL: B11 VL
notes: as for B11
B15: OA.hu.10C5.N53V.S34K (antibody, V domains shown)
VH: B11 VH with Q39K, N54V
VL: B11 VL with S34K, Q38E
notes: as for B1
B16: OA.hu.10C5.N53V.S34K.F92Y (antibody, V domains shown)
VH: B11 VH with Q39K, N54V
VL: B11 VL with S34K, Q38E, F92Y
notes: as for B1
B17: OA.hu.10C5.N53V.S95F (antibody, V domains shown)
VH: B11 VH with Q39K, N54V
VL: B11 VL with Q38E, S95F
notes: as for B1
B18: OA.hu.10C5.N53V.F92Y.S95F (antibody, V domains shown)
VH: B11 VH with Q39K, N54V
VL: B11 VL with Q38E, F92Y, S95F
notes: as for B1
B19: OA.hu.10C5.N53V.S34K.S95F (antibody, V domains shown)
VH: B11 VH with Q39K, N54V
VL: B11 VL with S34K, Q38E, S95F
notes: as for B1

What follows are binders tested against T1, human KLK5 (assay: SPR, one-armed monovalent antibody).
For B1, the Kd was 0.0121 nM, the koff was 2.39e-05 s⁻¹ and the kon was 1.98e+06 M⁻¹ s⁻¹.
Work on B2 yielded a Kd of 0.0162 nM, a koff of 1.6e-05 s⁻¹ and a kon of 992000 M⁻¹ s⁻¹.
B3 gave a Kd of 0.0199 nM, a koff of 4.91e-05 s⁻¹ and a kon of 2.47e+06 M⁻¹ s⁻¹.
B4 was tested, and the Kd was 0.0186 nM, the koff was 4.46e-05 s⁻¹ and the kon was 2.4e+06 M⁻¹ s⁻¹.
B5 showed a Kd of 0.0502 nM, a koff of 3.94e-05 s⁻¹ and a kon of 785000 M⁻¹ s⁻¹.
With B6 the Kd was 0.0102 nM, the koff was 3.85e-05 s⁻¹ and the kon was 3.79e+06 M⁻¹ s⁻¹.
B7 gave a Kd of 0.000348 nM, a koff of 2.97e-06 s⁻¹ and a kon of 8.54e+06 M⁻¹ s⁻¹.
B8 gave a Kd of 0.0196 nM, a koff of 1.37e-05 s⁻¹ and a kon of 699000 M⁻¹ s⁻¹.
For B9, the Kd was 0.00994 nM, the koff was 2.71e-05 s⁻¹ and the kon was 2.73e+06 M⁻¹ s⁻¹.
With B10 the Kd was 0.254 nM, the koff was 0.000272 s⁻¹ and the kon was 1.07e+06 M⁻¹ s⁻¹.

Target: T2, cynomolgus monkey KLK5
Assay: SPR, one-armed monovalent antibody
For B11, the Kd was 0.371 nM, the koff was 0.00424 s⁻¹ and the kon was 1.14e+07 M⁻¹ s⁻¹.
B12 was tested, and the Kd was 0.00885 nM, the koff was 0.000161 s⁻¹ and the kon was 1.82e+07 M⁻¹ s⁻¹.
B13 gave a Kd of 0.00265 nM, a koff of 2.81e-05 s⁻¹ and a kon of 1.06e+07 M⁻¹ s⁻¹.
Work on B14 yielded a Kd of 0.0355 nM, a koff of 0.00052 s⁻¹ and a kon of 1.46e+07 M⁻¹ s⁻¹.
Work on B15 yielded a Kd of 0.0162 nM, a koff of 8.88e-05 s⁻¹ and a kon of 5.48e+06 M⁻¹ s⁻¹.
Work on B16 yielded a Kd of 0.00522 nM, a koff of 3.08e-05 s⁻¹ and a kon of 5.9e+06 M⁻¹ s⁻¹.
B17 was tested, and the Kd was 0.00744 nM, the koff was 0.0001 s⁻¹ and the kon was 1.35e+07 M⁻¹ s⁻¹.
B18 showed a Kd of 0.00376 nM, a koff of 5.72e-05 s⁻¹ and a kon of 1.52e+07 M⁻¹ s⁻¹.
Binder B19 has a Kd of 0.00303 nM, a koff of 2.86e-05 s⁻¹ and a kon of 9.41e+06 M⁻¹ s⁻¹.

Target: T1, human KLK5
Assay: SPR, one-armed monovalent antibody
Remark: another data set of the same source
B11 showed a Kd of 0.102 nM, a koff of 0.00128 s⁻¹ and a kon of 1.25e+07 M⁻¹ s⁻¹.
In the case of B12, the Kd is reported as 0.00382 nM, the koff is reported as 2.45e-05 s⁻¹ and the kon is reported as 6.41e+06 M⁻¹ s⁻¹.
In the case of B13, the Kd is reported as 0.000367 nM, the koff is reported as 1.88e-06 s⁻¹ and the kon is reported as 5.13e+06 M⁻¹ s⁻¹.
Work on B14 yielded a Kd of 0.0135 nM, a koff of 9.23e-05 s⁻¹ and a kon of 6.84e+06 M⁻¹ s⁻¹.
B15 gave a Kd of 0.00289 nM, a koff of 9.88e-06 s⁻¹ and a kon of 3.42e+06 M⁻¹ s⁻¹.
B16 showed a Kd of less than 0.000334 nM, a koff of less than 1e-06 s⁻¹ and a kon of 3e+06 M⁻¹ s⁻¹.
In the case of B17, the Kd is reported as 0.00259 nM, the koff is reported as 1.51e-05 s⁻¹ and the kon is reported as 5.82e+06 M⁻¹ s⁻¹.
With B18 the Kd was 0.000853 nM, the koff was 8.65e-06 s⁻¹ and the kon was 1.01e+07 M⁻¹ s⁻¹.
In the case of B19, the Kd is reported as less than 0.000235 nM, the koff is reported as less than 1e-06 s⁻¹ and the kon is reported as 4.25e+06 M⁻¹ s⁻¹.

Target: T2, cynomolgus monkey KLK5
Assay: SPR, one-armed monovalent antibody
Remark: another data set of the same source
In the case of B1, the Kd is reported as 0.0146 nM, the koff is reported as 5.75e-05 s⁻¹ and the kon is reported as 3.95e+06 M⁻¹ s⁻¹.
Work on B2 yielded a Kd of 0.0175 nM, a koff of 8.44e-05 s⁻¹ and a kon of 4.82e+06 M⁻¹ s⁻¹.
In the case of B3, the Kd is reported as 0.033 nM, the koff is reported as 0.000133 s⁻¹ and the kon is reported as 4.02e+06 M⁻¹ s⁻¹.
With B4 the Kd was 0.00978 nM, the koff was 0.000145 s⁻¹ and the kon was 1.48e+07 M⁻¹ s⁻¹.
Work on B5 yielded a Kd of 0.0361 nM, a koff of 0.000145 s⁻¹ and a kon of 4.02e+06 M⁻¹ s⁻¹.
B6 showed a Kd of 0.00893 nM, a koff of 0.00011 s⁻¹ and a kon of 1.24e+07 M⁻¹ s⁻¹.
Work on B7 yielded a Kd of 0.00298 nM, a koff of 6.52e-05 s⁻¹ and a kon of 2.19e+07 M⁻¹ s⁻¹.
B8 was tested, and the Kd was 0.0172 nM, the koff was 7.36e-05 s⁻¹ and the kon was 4.28e+06 M⁻¹ s⁻¹.
For B9, the Kd was 0.0154 nM, the koff was 9.18e-05 s⁻¹ and the kon was 5.97e+06 M⁻¹ s⁻¹.
For B10, the Kd was 0.0623 nM, the koff was 0.000697 s⁻¹ and the kon was 1.12e+07 M⁻¹ s⁻¹.
